{"source": "patent US20190016812A1", "about": "(AbbVie / Abbott, published 2019)", "binders": {"B1": {"name": "SC113.14 (antibody, mouse IgG2a, V domains shown)", "VH": "QVQLQQSGAELVKPGASVKLSCKASGYTFTEYTIHWVKQKSGQGLEWIGWFYPGSGSLKFNEKFKDKATLTADISSNTVYMELSRLTSEDSAVYFCARHEDFFYFDSYTMDYWGQGTSVTVSS", "VL": "QIVLTQSPAIMSASPGEKVTLTCSASSSVSSSYLYWYQQKPGSSPKLWIYSTSKLSSGVPARFSGSGSGTSYSLTISSMEAEDAASYFCHQWSTYPWTFGGGTKLEIK", "notes": "mouse IgG2a"}, "B2": {"name": "SC113.15 (antibody, mouse IgG1, V domains shown)", "VH": "QVQLQQSGAELAKPGASVKMSCKASGYTFTTFWMHWLKQRPGQGLEWIGYINPRTYFTYYNQKFEDQATLTADESSSTAYMQLNSLTSEDSAVYYCATHHGGFDVWGAGTTVTVSS", "VL": "DVVMTQTPLSLPVSLGDQASISCRSSQSLVHSNGDTYLHWYLQKPGQSPKLLIYKVSNRFSGVPDRFSGSRSGTDFTLKISRVEAEDLGIYFCSQSTHVPYTFGGGTKLEIK", "notes": "mouse IgG1"}}, "key": {"[1]": {"biological_target": "T1, human TNFSF9 (R&D Systems; #2295-4L-025/CF) (human, UniProt P41273 71-254, limits assumed)", "T1 construct": "also called TNFSF9 (ligand); TNFSF9 ligand", "T1 sequence (P41273 71-254 limits assumed)": "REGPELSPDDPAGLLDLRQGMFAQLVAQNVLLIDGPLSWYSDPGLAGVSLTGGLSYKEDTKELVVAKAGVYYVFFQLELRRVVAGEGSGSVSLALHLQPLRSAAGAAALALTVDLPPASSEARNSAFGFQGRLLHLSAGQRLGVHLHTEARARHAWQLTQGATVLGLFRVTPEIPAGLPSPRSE", "assay": "MSD ELISA: TNFSF9 + 1 ug/mL antibody, binding to coated TNFRSF9"}, "[2]": {"biological_target": "human TNFSF9 (hTNFSF9), full length, overexpressed on HEK293T cells (human, UniProt P41273 1-254)", "assay": "cell-based or functional assay"}, "[3]": {"biological_target": "cynomolgus TNFSF9 (cTNFSF9), full length, overexpressed on HEK293T cells (cynomolgus)", "assay": "cell-based or functional assay"}, "[4]": {"biological_target": "T2, cynomolgus TNFSF9 (cTNFSF9) protein, soluble recombinant (cynomolgus)", "T2 construct": "extracellular domain; also called cynomolgus TNFSF9 protein", "assay": "SPR (Biacore)"}, "[5]": {"biological_target": "T3, hTNFSF9-His (monomeric human TNFSF9 extracellular domain with 9x-Histidine tag) (human, UniProt P41273 50-254)", "T3 construct": "also called hTNFSF9-His protein; monomeric hTNFSF9-His antigen", "T3 sequence (P41273 other isoform, or with tags, fused parts or gaps)": "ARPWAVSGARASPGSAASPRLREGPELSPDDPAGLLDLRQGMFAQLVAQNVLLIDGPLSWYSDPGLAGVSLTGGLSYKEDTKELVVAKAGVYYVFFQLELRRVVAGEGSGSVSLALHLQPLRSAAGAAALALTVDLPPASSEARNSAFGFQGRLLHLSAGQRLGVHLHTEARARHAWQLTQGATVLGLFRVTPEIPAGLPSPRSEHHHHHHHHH", "assay": "SPR (Biacore)"}}}
{"binder": "B1", "values": [{"measurement": "% inhibition of ligand receptor interaction", "setting": "[1]", "value": -34, "unit": "%"}, {"measurement": "% live cells, Fab-saporin killing, 250 pM antibody", "setting": "[2]", "value": 10.2, "unit": "%"}, {"measurement": "% live cells, Fab-saporin killing, 250 pM antibody", "setting": "[3]", "value": 11, "unit": "%"}, {"measurement": "Kd", "setting": "[4]", "value": 7, "unit": "nM"}, {"measurement": "Kd", "setting": "[5]", "value": 3, "unit": "nM"}]}
{"binder": "B2", "values": [{"measurement": "% inhibition of ligand receptor interaction", "setting": "[1]", "value": 42, "unit": "%"}, {"measurement": "% live cells, Fab-saporin killing, 250 pM antibody", "setting": "[2]", "value": 20.2, "unit": "%"}, {"measurement": "% live cells, Fab-saporin killing, 250 pM antibody", "setting": "[3]", "value": 107, "unit": "%"}, {"measurement": "Kd", "setting": "[4]", "value": 11, "unit": "nM"}, {"measurement": "Kd", "setting": "[5]", "value": 5, "unit": "nM"}]}
